Experimental data: patent US5360895A, “Derivatized gold clusters and antibody-gold cluster conjugates” (priority 1992, dated 1994)

B1: F(ab')2 -Au11: F(ab')2 -Au11 conjugate of 17-1A mouse monoclonal antibody specific for human colorectal tumors (conjugate, chains of the INN, looked up)
VH: QVQLQQSGAELVRPGTSVKVSCKASGYAFTNYLIEWVKQRPGQGLEWIGVINPGSGGTNYNEKFKGKATLTADKSSSTAYMQLSSLTSDDSAVYFCARDGPWFAYWGQGTLVTVSA
VL: NIVMTQSPKSMSMSVGERVTLTCKASENVVTYVSWYQQKPEQSPKLLIYGASNRYTGVPDRFTGSGSATDFTLTISSVQAEDLADYHCGQGYSYPYTFGGGTKLEIK
modifications: F(ab')2 undecagold cluster label
notes: F(ab')2 -Au11 conjugate of 17-1A mouse monoclonal antibody specific for human colorectal tumors
B2: undecagold cluster-labeled 17-1A monoclonal antibody: undecagold cluster-labeled 17-1A monoclonal antibody (conjugate, chains of the INN, looked up)
VH: B1 VH
VL: B1 VL
modifications: undecagold cluster label
B3: IgG-Au11: 17-1A whole IgG labeled with monomaleimidopropyl undecagold cluster, about 2 Au clusters per IgG (conjugate, chains of the INN, looked up)
VH: B1 VH
VL: B1 VL
modifications: undecagold cluster label
notes: 17-1A whole IgG labeled with monomaleimidopropyl undecagold cluster, about 2 Au clusters per IgG

Legend:
[1] = Thermal stability of gold clusters; format: physicochemical
[2] = test system: human colon carcinoma cells (LS180); test: In vitro cell binding of 17-1A-Au11 conjugates, human colon carcinoma (radioactivity of gold); conditions: percent of applied radioactive gold bound after incubation and washing; average ± s.d. of 2 samples
Procedure: (§3) The 17-1A Fab' fragment-(radioactive gold)-undecagold cluster conjugate was incubated in vitro with tumor cells (LS180- a cell culture of human colon carcinoma) and non tumor cells (WM164 - a cell culture of melanoma as control) and the radioactivity of the gold was used to assay binding.
(§4) bound to cells after incubation and washing.
(§5) entry is an average (+ s.d.) of 2 samples.

[3] = test system: melanoma cells; test: Radioimmunoassay, cell binding of gold labeled F(ab')2 to melanoma cells (control); format: cell-based; conditions: 17-1A; in words
Procedure: (§1) Both of these methods were used to prepare F(ab')2 -Au11 conjugates using 17-1A mouse monoclonal antibody which is specific for human colorectal tumors. After preparation, this labeled antibody was tested to find if its immunoreactivity had been altered. A radioimmunoassay was performed using cell binding to cultured human colon carcinoma cells and to melanoma cells (the control).

[4] = test system: human colon carcinoma; test: In vivo biodistribution of radiogold cluster 17-1A conjugates in nude mice bearing human tumors; conditions: 24 hr after injection; for blood, % of injected dose per gram of tissue / bone, % of injected dose per gram of tissue / gut, % of injected dose per gram of tissue / heart, % of injected dose per gram of tissue / kidneys, % of injected dose per gram of tissue / liver, % of injected dose per gram of tissue / lung, % of injected dose per gram of tissue / muscle, % of injected dose per gram of tissue / spleen, % of injected dose per gram of tissue / stomach, % of injected dose per gram of tissue / tumor, % of injected dose per gram of tissue: normalized to 25 g animals
Procedure: Nude mice bearing human colon carcinoma or melanoma tumors were injected with radioactive gold clusters conjugated to anti-tumor antibodies. Two antibodies were gold labeled, one (17-1A) against the human colon carcinoma and another non-relevant antibody, H2 4B5 anti-influenza. The non-relevant tumor (melanoma) and non-relevant gold conjugated antibody (H2 4B5) served as controls. A total of 53 mice were used. In order to assess the efficacy of using gold labeled Fab' versus whole IgG, both types of antibody were labeled and tested. In addition, two crosslinking arms between the gold cluster and antibody were used, one, as described in the preparation example, was N-methoxycarbonyl maleimide (NMCM), whereas the other was n-maleimidobenzoyl-N-hydroxysuccinimide ester (MBS), This was to test if a different covalent crosslinker between the gold cluster and antibody or antibody fragment yielded conjugates with different stabilities or body distributions in vivo.
In vivo biodistribution of radiogold cluster 17-1A conjugates. Data,
after injection is expressed in % of injected dose per gram of tissue.
Tumor to normal tissue ratios are given in parentheses. Three or four
sample were averaged; normalized to 25 g animals.

[5] = test system: melanoma cells (WM164); test: In vitro cell binding of 17-1A-Au11 conjugates, control melanoma (radioactivity of gold); conditions: for % bound to control cells (melanoma): percent of applied radioactive gold bound after incubation and washing, average ± s.d. of 2 samples
Procedure: as §3, §4, §5

[6] = test system: human colon carcinoma cells; test: Radioimmunoassay, cell binding of gold labeled F(ab')2 to cultured human colon carcinoma cells; format: cell-based; conditions: 17-1A; in words
Procedure: as §1

[7] = test system: melanoma cells (cell line WM 164); test: Silver enhanced staining of control melanoma cells, light microscope; format: cell-based; conditions: approximately 45 minutes developer
Procedure: (§2) Assuming each call has approx. 10^6 antibody binding sites, a ten fold molar excess over this of undecagold cluster-labeled 17-1A monoclonal antibody was applied. Cells were incubated at room temperature for one hour on a wrist shaker device. The cells were then centrifuged at 1100 rpm for 5 minutes and the supernatent discarded. Additional buffer was added to resuspend the cells and after 3 minutes they were centrifuged again. Three of these washes were done. As a control, melanoma cells (cell line WM 164) were also prepared in a similar fashion. Cells were concentrated onto glass microscope slides using a Cytospin device. […] UV exposure for 5 minutes prior to development enhanced this color.

[8] = test system: Human colon carcinoma cells (cell line LS180); test: Silver enhanced staining of human colon carcinoma cells, light microscope; format: cell-based; conditions: approximately 45 minutes developer
Procedure: Human colon carcinoma cells (cell line LS180) were grown in tissue culture media. The cells were harvested with a brief trypsin treatment and centrifuged. They were then resuspended in phosphate buffered saline with 5% IgG free horse serum.
as §2

Molecule	% bound to tumor cells (human colon carcinoma) [2] [%]	Tumor to normal tissue ratio, blood [4]	Tumor to normal tissue ratio, bone [4]	Tumor to normal tissue ratio, gut [4]	Tumor to normal tissue ratio, heart [4]	Tumor to normal tissue ratio, kidneys [4]	Tumor to normal tissue ratio, liver [4]	Tumor to normal tissue ratio, lung [4]	Tumor to normal tissue ratio, muscle [4]	Tumor to normal tissue ratio, spleen [4]	Tumor to normal tissue ratio, stomach [4]	blood, % of injected dose per gram of tissue [4]	bone, % of injected dose per gram of tissue [4]	gut, % of injected dose per gram of tissue [4]	heart, % of injected dose per gram of tissue [4]	kidneys, % of injected dose per gram of tissue [4]	liver, % of injected dose per gram of tissue [4]	lung, % of injected dose per gram of tissue [4]	muscle, % of injected dose per gram of tissue [4]	spleen, % of injected dose per gram of tissue [4]	further results
Au55 [P(PhCONHCH3)3 ]11 P(PhCONHCH3)2 [derivatized Au55 cluster, Au55 [P(PhCONHCH3)3 ]11 P(PhCONHCH3)2 [PhCONH(CH2)3 N(CO)2 (CH)2 ]]	–	–	–	–	–	–	–	–	–	–	–	–	–	–	–	–	–	–	–	–	temperature above which the cluster deteriorates rapidly [1]: above 70 °C
B1	16.13 ± 0.02	1.5	3.5	5.3	3.4	0.1	0.8	1.8	8.6	1.3	9.1	5.6 ± 0.4 % of injected dose per gram of tissue	2.4 ± 0.2 % of injected dose per gram of tissue	1.6 ± 0.2 % of injected dose per gram of tissue	3.2 ± 0.4 % of injected dose per gram of tissue	117.0 ± 20 % of injected dose per gram of tissue	10.5 ± 0.4 % of injected dose per gram of tissue	4.6 ± 0.1 % of injected dose per gram of tissue	0.98 ± 0.08 % of injected dose per gram of tissue	6.4 ± 0.8 % of injected dose per gram of tissue	binding to the control cells [3]: no binding to the control cells; stomach, % of injected dose per gram of tissue [4]: 0.93 ± 0.19 % of injected dose per gram of tissue; tumor, % of injected dose per gram of tissue [4]: 8.4 ± 0.6 % of injected dose per gram of tissue; radioactive gold on the non-tumor cells ([5]; WM164, text statement on Table 1, "or background for F(ab')2"): < 0.4%; % bound to control cells (melanoma) [5]: 0.30 ± 0.03%; binding to the tumor cells versus native unlabeled F(ab')2 [6]: virtually identical binding to the tumor cells as did native unlabeled F(ab')2
B2	–	–	–	–	–	–	–	–	–	–	–	–	–	–	–	–	–	–	–	–	staining of control cells after silver developer [7]: clear and showed virtually no staining; staining of cells after silver developer [8]: became brown in color, easily identifiable in the light microscope
B3	14.32 ± 0.92	2.5	3.6	7.2	3.1	0.5	1.7	2.3	10.0	0.8	11.6	3.2 ± 0.6 % of injected dose per gram of tissue	2.2 ± 0.3 % of injected dose per gram of tissue	1.1 ± 0.3 % of injected dose per gram of tissue	2.6 ± 0.4 % of injected dose per gram of tissue	17.1 ± 3.1 % of injected dose per gram of tissue	4.6 ± 0.7 % of injected dose per gram of tissue	3.4 ± 0.9 % of injected dose per gram of tissue	0.80 ± 0.23 % of injected dose per gram of tissue	9.5 ± 0.3 % of injected dose per gram of tissue	stomach, % of injected dose per gram of tissue [4]: 0.69 ± 0.20 % of injected dose per gram of tissue; tumor, % of injected dose per gram of tissue [4]: 8.0 ± 3.2 % of injected dose per gram of tissue; % bound to control cells (melanoma) [5]: 0.77 ± 0.08%
